# Source: patent US20060217308A1, “Compositions for the treatment of tumor pathologies, comprising internalin B (ln1B) of Listeria monocytogene protein or a fragment thereof” (priority 2005, published 2006)
# B1: In1B: Listeria monocytogenes surface protein of the internalin family that interacts with Met; purified soluble protein (protein, UniProt P0DQD2 31-630, looked up)
# Internalin B: AKVQAETITVPTPIKQIFSDDAFAETIKDNLKKKSVTDAVTQNELNSIDQIIANNSDIKSVQGIQYLPNVTKLFLNGNKLTDIKPLANLKNLGWLFLDENKVKDLSSLKDLKKLKSLSLEHNGISDINGLVHLPQLESLYLGNNKITDITVLSRLTKLDTLSLEDNQISDIVPLAGLTKLQNLYLSKNHISDLRALAGLKNLDVLELFSQECLNKPINHQSNLVVPNTVKNTDGSLVTPEIISDDGDYEKPNVKWHLPEFTNEVSFIFYQPVTIGKAKARFHGRVTQPLKEVYTVSYDVDGTVIKTKVEAGTRITAPKPPTKQGYVFKGWYTEKNGGHEWNFNTDYMSGNDFTLYAVFKAETTEKAVNLTRYVKYIRGNAGIYKLPREDNSLKQGTLASHRCKALTVDREARNGGKLWYRLKNIGWTKAENLSLDRYDKMEYDKGVTAYARVRNASGNSVWTKPYNTAGAKHVNKLSVYQGKNMRILREAKTPITTWYQFSIGGKVIGWVDTRALNTFYKQSMEKPTRLTRYVSANKAGESYYKVPVADNPVKRGTLAKYKNQKLIVDCQATIEGQLWYRIRTSSTFIGWTKAANLRAQK
# Legend:
# Met [1] = assay: Nature of In1B-dependent ubiquitination of Met (FK1 versus P4D1 antibodies); type: cell-based, human; conditions: HeLa cells, In1B 5 nM, FK1 did not recognize
# Description: (A) In1B was added (+) to HeLa cells. Lysates were immunoprecipitated using C12 rabbit polyclonal anti-Met antibody and blotted against Met (DL21 mAb). The same membrane was stripped and blotted against ubiquitin using FK1, a mAb that recognizes poly-ubiquitinated proteins, or P4D1, a mAb that recognizes both poly- and mono-ubiquitinated proteins. (B) Total cell extracts from Hela cells treated with […] epoximycin (lane 2) or […] clasto-lactacystin-β-lactone (lane 3) for 60 minutes, or non-treated cells (lane 1) were blotted against poly-ubiquitin (FK1) or actin. (C) ubiquitin ladder was blotted with FK1 or P4D1. The number of ubiquitin modules is indicated on the right. The molecular weight of protein markers is shown in the left of the panels, in kDa. In D and E, Hela Cells were transfected with siRNA to knock down Cbl expression (RNAi), or with RNA control (Control). (D) Cellular Cbl and actin were detected by immunoblotting. […]
# The rapid degradation of Met after In B contact is different from the HGF-dependent degradation, which has been reported to take two hours (19-21), indicating differences in the biochemistry of the process. […] Samples from HeLa cells treated with In1B (5 nM) were immunoprecipitated using an anti-Met antibody, and then Met-immunoprecipitates were analyzed with an anti Met mAb (FIG. 3A1), FK1 (FIG. 3A2) or P4D1 (FIG. 3A3). […]
# Met [2] = assay: Cell surface biotinylation and internalization assay of Met; type: cell-based, human; conditions: HeLa cells, In1B two minutes
# Description: (A) Hela cells were treated (+) with […] epoximycin, […] clasto-lactacystin-β-lactone (lactone), 20 mM ammonium chloride, or 5 μM bafilomycin A1 (Baf-A1) for 90 minutes before addition of In1B. Cell extracts were loaded in a SDS-PAGE gel followed by immunoblot with anti-Met antibody. […] (B) Surface exposed proteins of Hela cells were biotinylated (Biot +) before addition of In1B. In1B was added for two minutes to allow internalization of Met, then cells were washed and biotin was removed (see methods and text) from the surface. Samples were precipitated with neutravidin agarose and blotted against Met.
# Cell surface biotinylation and internalization assay were performed as described before (35). Briefly, the cells were washed in ice-cold PBS, and incubated with 25 mg/ml EZ-link Sulfo-NHS-SS-biotin (Pierce) 15 minutes in PBS pH 8.0, and followed by one wash with serum free media containing 0.1% BSA, followed by one wash in PBS containing Ca and Mg (PBS+CaMg; Gibco). The cells were then warmed to 37° C., incubated with In1B for two minutes, and then cooled down to 4° C. The cells were washed again with PBS+CaMg, and cell-surface debiotinylation was performed by adding 100 mM MESNA in 50 mM Tris-HCl pH 8.6, 100 mM NaCl, 1 mM EDTA and 0.2% BSA (3 times, 10 minutes incubation). […]
# Chain of Met (P08581 25-1390): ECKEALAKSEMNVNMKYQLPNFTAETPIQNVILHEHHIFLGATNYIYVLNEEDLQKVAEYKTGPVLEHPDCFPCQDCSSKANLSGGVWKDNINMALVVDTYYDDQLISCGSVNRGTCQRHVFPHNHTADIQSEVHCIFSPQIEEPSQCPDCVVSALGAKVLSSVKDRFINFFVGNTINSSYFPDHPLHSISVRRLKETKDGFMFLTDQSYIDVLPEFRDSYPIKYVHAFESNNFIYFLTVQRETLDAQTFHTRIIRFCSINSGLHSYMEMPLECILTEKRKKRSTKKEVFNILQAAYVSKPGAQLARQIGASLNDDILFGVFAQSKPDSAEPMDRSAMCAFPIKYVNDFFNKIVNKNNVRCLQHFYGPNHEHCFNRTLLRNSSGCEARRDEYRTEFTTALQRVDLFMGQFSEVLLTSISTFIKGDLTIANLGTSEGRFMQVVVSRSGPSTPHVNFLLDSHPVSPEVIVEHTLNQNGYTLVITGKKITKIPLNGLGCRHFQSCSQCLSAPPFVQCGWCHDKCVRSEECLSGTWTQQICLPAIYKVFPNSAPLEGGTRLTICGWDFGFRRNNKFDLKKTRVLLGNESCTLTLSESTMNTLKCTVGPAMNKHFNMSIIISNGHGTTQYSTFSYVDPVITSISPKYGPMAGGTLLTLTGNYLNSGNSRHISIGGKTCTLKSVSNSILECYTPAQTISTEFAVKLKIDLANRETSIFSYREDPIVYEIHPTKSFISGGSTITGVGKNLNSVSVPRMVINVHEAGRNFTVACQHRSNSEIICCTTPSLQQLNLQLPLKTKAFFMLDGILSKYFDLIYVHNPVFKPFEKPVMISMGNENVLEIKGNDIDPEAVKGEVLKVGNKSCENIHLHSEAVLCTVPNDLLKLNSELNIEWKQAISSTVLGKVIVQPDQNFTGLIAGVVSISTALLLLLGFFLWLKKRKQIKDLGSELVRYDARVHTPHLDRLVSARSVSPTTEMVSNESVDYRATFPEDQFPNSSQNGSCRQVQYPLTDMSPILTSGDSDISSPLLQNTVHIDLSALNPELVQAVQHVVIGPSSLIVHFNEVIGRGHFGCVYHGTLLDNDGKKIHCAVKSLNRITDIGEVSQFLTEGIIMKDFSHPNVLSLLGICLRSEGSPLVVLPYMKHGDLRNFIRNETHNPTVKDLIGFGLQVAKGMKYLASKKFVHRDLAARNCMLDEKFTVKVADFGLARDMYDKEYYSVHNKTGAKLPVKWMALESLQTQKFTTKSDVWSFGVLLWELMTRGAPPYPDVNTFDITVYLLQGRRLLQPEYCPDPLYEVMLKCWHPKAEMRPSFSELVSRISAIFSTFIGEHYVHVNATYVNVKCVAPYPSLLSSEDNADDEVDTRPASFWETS
molecule,measurement,setting,value
B1,nature of In1B-dependent ubiquitination of Met,Met [1],mono-ubiquitination rather than poly-ubiquitination
same,endocytosis of Met (protection of biotinylated Met from MESNA de-biotinylation),Met [2],protected Met from de-biotinylation
